From PMC10694592, “A conserved core region of the scaffold NEMO is essential for signal-induced conformational change and liquid-liquid phase separation” (The Journal of Biological Chemistry, 2023)

Biological target: FITC-labeled 45-mer peptide derived from the C-terminal region of IKKβ (FITC label (position not given))
Experiment: fluorescence polarisation; fluorescence anisotropy binding assay with an FITC-labeled 45-mer peptide of IKKβ and bacterially expressed full-length NEMO proteins; conditions not told here (refs 13, 26)
Details: both partners purified

Kd: 13 ± 2.9 nM
B1: 7XAla-NEMO (aa 1-419), bacterially expressed (natural protein)
chain: MNRHLWKSQLAEMVQPSGGPAADQDVLGEESPLGKPAMLHLPSEQGAPETLQRALEENQELRDAIRQSNQILRERAEELLHFQASQREEKEFLMAKFQEARKLVERLGLEKLDLKRQKEQALREVEHLKRAQQQMAEDKASVKAQVTSLLGELQESQSRLEAATKEAQALEGRARAASEQARQLESEREALQQQHSVQVDQLRMQGQSVEAALRMERQAASEEKRKLAQLQVAYHQLFQEYDNHIKSSVVGSERKRGMQLEDLKQQLQQAEEALVAKQEVIDKLKEEAEQHKIVMETVPVLKAQADIYKADFQAERQAREKLAEKKELLQEQLEQLQREYSKLKASAQESARIEDMRKRHVEVSQAPLPPAPAYLSSPLALPSQRRSPPEEPPDFCCPKCQYQAPDMDTLQIHVMECIE
